We go through 5 molecules from patent publication US20240376207A1 (JIANGSU HENGRUI PHARMACEUTICALS, published 2024).

Assay [1] deals with T1, human TIGIT recombinant protein (human, UniProt Q495A1 22-141, limits assumed).
T1 construct: construct not described; also called human TIGT recombinant protein
T1 sequence (looked up): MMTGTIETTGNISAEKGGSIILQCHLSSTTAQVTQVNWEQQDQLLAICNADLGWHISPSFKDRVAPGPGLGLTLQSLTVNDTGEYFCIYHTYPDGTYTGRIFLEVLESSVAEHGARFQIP
The assay can be described thus: competition ELISA; human TIGIT, competitor human PVR. How it is done:
The h-PVRIG-mIgG2a Fc protein (at a concentration of 1 μg/mL) was coated on the 96-well microplate at 100 μL per well, and incubated overnight at 4° C. The plate was washed three times with wash buffer at 250 μL per well. For each wash, the plate was shaken for 10 s to ensure adequate cleaning. A blocking solution was added at 300 μL/well, and the plate was incubated at room temperature for 1 h. The plate was washed three times with wash buffer at 250 μL per well. For each wash, the plate was shaken for 10 s to ensure adequate cleaning. 50 μL of diluted test anti-PVRIG antibody and 50 μL of his-tagged ligand PVRL2 were added to each well, and the plate was incubated at 37° C. for 1 h. The plate was washed three times with wash buffer at 250 μL per well. The HRP-labeled anti-his-tagged secondary antibody (Genscrpit) diluted at 1:2000 was added at 100 μL per well. The plate was incubated at 37° C. for 1 h. The plate was washed three times with wash buffer at 250 μL per well. TMB was added at 100 μL/well, and the plate was incubated in the dark for 15 min. 0.16 M sulfuric acid was added at 50 μL/well. OD values at 450 nm were measured using a Thermo MμtLtiSkanFc microplate reader, and the IC₅₀ values of the anti-PVRIG antibodies blocking the binding of PVRIG to PVRL2 were calculated.
(§1) The experiments were carried out according to the methods of Example 4, Example 5 and Example 6 (corresponding receptors and ligands were replaced with human TIGIT and human PVR), and the results are shown in Table 27.

Assay [2] addresses T2, human TIGIT expressed on cells (human, UniProt Q495A1 22-244).
T2 construct: whole, on cells; also called cells overexpressing human TIGIT
T2 sequence (looked up): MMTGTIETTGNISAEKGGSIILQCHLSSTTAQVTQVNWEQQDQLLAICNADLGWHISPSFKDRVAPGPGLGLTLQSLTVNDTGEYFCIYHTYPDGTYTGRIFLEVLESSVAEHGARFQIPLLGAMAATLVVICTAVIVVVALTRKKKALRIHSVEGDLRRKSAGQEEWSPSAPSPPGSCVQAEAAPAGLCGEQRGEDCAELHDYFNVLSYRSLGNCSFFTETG
The assay can be described thus: FACS, cells overexpressing target. On the procedure:
(§2) The expression plasmid carrying human or cynomolgus monkey PVRIG gene sequence was transfected into HEK293 cells, and the over-expressing stable transfection monoclonal cell strain was obtained by antibiotic screening and infinite dilution. Overexpressing cells were seeded into a 96-well plate at 2×10⁵ cells/per well. The cells were centrifuged at 300 g for 5 min, the supernatant was then removed, 100 μL of the test antibody was added, and the mixture was incubated at 4° C. for 1 h. The mixture was centrifuged, the supernatant was removed, the plate was washed 3 times with 200 μL of wash buffer (PBS+2% FBS), and then 100 μL of an anti-human IgG secondary antibody (Invitrogen, A-11013) labeled with Alexa Fluor 488 diluted at 1:500 was added. The mixture was incubated at 4° C. for 1 h. The plate was centrifuged, and the supernatant was removed. The plate was washed 3 times with 200 μL of wash buffer (PBS+2% FBS). The cells were resuspended in 100 μL of PBS and tested on a flow cytometer (BD FACS Calibur or BD FACS Canto_II).
as §1
In general terms: A flow cytometer gives signals particle by particle.

Assay [3] has as its target T1, human TIGIT recombinant protein. The assay can be described thus: ELISA, coated antigen. On the procedure: (§3) A human, cynomolgus monkey, or mouse PVRIG protein (at a concentration of 1 μg/mL) was coated on a 96-well microplate at 100 μL per well, and incubated overnight at 4° C. The plate was washed three times with wash buffer at 250 μL per well. For each wash, the plate was shaken for 10 s to ensure adequate cleaning. A blocking solution (PBS+0.05% Tween20+1% BSA) was added at 300 μL/well, and the plate was incubated at room temperature for 1 h. The plate was washed three times with wash buffer at 250 μL per well. For each wash, the plate was shaken for 10 s to ensure adequate cleaning. Dilutions of the test anti-PVRIG antibodies were added at 100 μL/well. The plate was incubated at 37° C. for 1 h. The plate was washed three times with wash buffer at 250 μL per well. The […] anti-human IgG secondary antibody (Sigma, A8667) was added at 100 μL per well. The plate was incubated at 37° C. for 1 h. The plate was washed three times with wash buffer at 250 μL per well. TMB was added at 100 μL/well, and the plate was incubated in the dark for 15 min. 0.16 M sulfuric acid was added at 50 μL/well. The OD values at 450 nm were read by using a Thermo MultiSkanFc microplate reader, and the EC₅₀ values of the binding of the anti-PVRIG antibodies to PVRIG were calculated.
as §1

Assay [4] addresses T3, human PVRIG expressed on cells (human, UniProt Q6DKI7 41-326).
T3 construct: whole, on cells; also called Human PVRIG FACS; cells overexpressing human PVRIG
T3 sequence (looked up): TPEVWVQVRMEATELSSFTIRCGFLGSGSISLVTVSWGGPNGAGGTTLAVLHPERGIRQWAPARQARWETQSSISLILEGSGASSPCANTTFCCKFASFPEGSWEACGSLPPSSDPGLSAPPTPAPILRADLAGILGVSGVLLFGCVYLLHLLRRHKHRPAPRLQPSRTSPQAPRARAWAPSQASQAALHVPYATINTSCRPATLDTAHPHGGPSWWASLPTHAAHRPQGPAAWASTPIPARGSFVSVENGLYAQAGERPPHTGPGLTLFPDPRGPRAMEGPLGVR
The assay can be described thus: FACS, HEK293 cells overexpressing target. How it is done: as §2
(§4) Binding of the humanized anti-PVRIG antibodies to human or cynomolgus monkey PVRIG was detected by using a flow cytometer according to the method of Example 5.

Assay [5] concerns the target T4, cynomolgus monkey PVRIG expressed on cells (cynomolgus monkey, UniProt A0A2K5WVV8 1-322).
T4 construct: whole, on cells; also called Monkey PVRIG FACS; cells overexpressing cynomolgus monkey PVRIG
T4 sequence: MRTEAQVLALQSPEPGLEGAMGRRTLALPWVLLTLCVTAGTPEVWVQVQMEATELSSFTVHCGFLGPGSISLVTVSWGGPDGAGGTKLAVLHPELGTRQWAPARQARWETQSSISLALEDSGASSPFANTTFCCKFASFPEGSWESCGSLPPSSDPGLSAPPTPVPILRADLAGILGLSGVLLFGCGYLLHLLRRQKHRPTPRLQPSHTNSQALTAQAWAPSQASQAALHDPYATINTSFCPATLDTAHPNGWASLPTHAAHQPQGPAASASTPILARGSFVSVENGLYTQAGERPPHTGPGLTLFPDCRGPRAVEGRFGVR
The assay can be described thus: FACS, HEK293 cells overexpressing target. On the procedure: as §2, §4

In assay [6] the target is T3, human PVRIG expressed on cells. The assay can be described thus: cell-based or functional assay.
Assay [7] has as its target T5, his-tagged human PVRIG (h-PVRIG-his) recombinant protein (human, UniProt Q6DKI7 41-171, limits assumed).
T5 construct: bought from Acrobiosystems; also called Human PVRIG-his; human PVRIG recombinant protein; not shown: his tag
T5 sequence (looked up): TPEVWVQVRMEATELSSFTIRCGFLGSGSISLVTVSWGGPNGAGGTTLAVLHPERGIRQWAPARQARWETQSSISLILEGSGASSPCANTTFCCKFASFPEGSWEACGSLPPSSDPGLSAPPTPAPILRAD
The assay can be described thus: BLI (Fortebio), antibody on Protein A sensor, 1:1 fit. How it is done: A Protein A biosensor (Fortebio, #18-5010) was immersed in 200 μL of KB buffer (PBS, pH 7.4, 0.02% tween-20, 0.1% BSA) for 60 s for the wetting treatment. Then, the anti-PVRIG antibody was diluted to 10 μg/mL with the KB buffer, and the sensor was immersed in 200 μL of the solution until the reading was 1.2 nm. The sensor was immersed in the KB buffer for 100 s to elute excess antibody. The his-tagged human PVRIG was diluted in a 2-fold gradient to 64 nM-4 nM with the KB buffer. The sensor was immersed in the solution for 300 s for binding. The sensor was immersed in the KB buffer for 600 s for dissociation. The data were fitted in a dynamic 1:1 binding mode.
The affinity of the humanized anti-PVRIG antibodies for human PVRIG was detected according to the method of Example 7. All the antibodies listed in the Table have high affinity for human PVRIG.
For orientation: Biolayer interferometry detects binding as a change in optical thickness at a sensor tip.

Assay [8] addresses T3, human PVRIG expressed on cells. The assay can be described thus: cell-based or functional assay. The source holds these as a separate data set.
Assay [9] addresses T6, human IgG1 Fc-tagged mouse PVRIG (m-PVRIG-hIgG1 Fc) (mouse, UniProt A0A1B0GS01 35-165).
T6 construct: bought from Acrobiosystems; also called Mouse PVRIG-Fc; mouse PVRIG recombinant protein; not shown: human IgG1 Fc tag of the Acrobiosystems product, and any linker to it
T6 sequence: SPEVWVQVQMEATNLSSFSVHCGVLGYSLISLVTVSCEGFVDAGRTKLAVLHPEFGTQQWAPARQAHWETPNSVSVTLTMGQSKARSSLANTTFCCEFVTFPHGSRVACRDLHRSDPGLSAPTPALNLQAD
Put plainly: ELISA, coated antigen. On the procedure: (§5) ELISA assay was used to detect binding properties of anti-PVRIG antibodies. […] After the antibody was added, the activity of the binding of the antibody to the antigen was detected by adding a secondary antibody (HRP-conjugated anti-primary antibody Fc antibody) and HRP substrate TMIB.
as §3

The target of assay [10] is T7, his-tagged cynomolgus monkey PVRIG (cyno-PVRIG-his) recombinant protein (cynomolgus monkey).
T7 construct: expressed in HEK293, purified by Ni-NTA; also called Monkey PVRIG-his; cynomolgus monkey PVRIG recombinant protein
T7 chain: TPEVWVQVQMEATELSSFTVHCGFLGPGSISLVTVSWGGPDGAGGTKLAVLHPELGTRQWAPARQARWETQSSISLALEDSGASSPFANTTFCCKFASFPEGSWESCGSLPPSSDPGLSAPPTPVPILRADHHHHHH
Put plainly: ELISA, coated antigen. How it is done: as §5, §3
(In general: An ELISA detects its analyte on a solid surface through an enzyme-linked reagent.)

B1: anti-PVRIG/TIGIT bispecific antibody 1708-151-1 (bispecific antibody, human IgG4 S228P, kappa)
heavy: not shown
light: DIQMTQSPSSLSASVGDRVTITCRASENIYSYLAWYQQKPGKSPKLLIYNARTLAEGVPSRFSGSGSGTDFTLTISSLQPEDFATYYCQYHSGSPLPFGGGTKVEIKRTVAAPSVFIFPPSDEQLKSGTASVVCLLNNFYPREAKVQWKVDNALQSGNSQESVTEQDSKDSTYSLSSTLTLSKADYEKHKVYACEVTHQGLSSPVTKSFNRGEC
Turning to B1, the IC50 (in general, the midpoint of a concentration-inhibition curve) in assay [1] was 960 pM. In addition, the figures for the EC50 in assay [2] and in assay [3] were 1510 pM and 101 pM, respectively.

B2: anti-PVRIG/TIGIT bispecific antibody 1708-151-2 (bispecific antibody, human IgG4 S228P, kappa)
heavy: not shown
light: B1 light
As to B2, the IC50 in assay [1] came out at 1040 pM. Also, the figures for the EC50 in assay [2] and in assay [3] were 1270 pM and 90 pM, respectively.

B3: humanized anti-PVRIG antibody 30H2 (antibody, human IgG4 S228P, F234A L235A, V domains shown)
VH: EVQLVESGGGLVQPGGSLRLSCAASGFTFSGDCMGWFRQAPGKGLDEGVATIDNAGRIKYADSVKGRFTISRDNAKNSLYLQMNSLRAEDTAVYYCAAGWTFGGQCSPADWGQGTQVTVSS
For B3, a half-maximal response in assay [4] (EC50) required 3 pM. Also, in [5], the response was half-maximal at 5 pM (EC50). In [6], the “NK92 killing of K562, killing activity (%), 4 nM antibody” value worked out at 7.7%; the “NK92 killing of K562, killing activity (%), 20 nM antibody” value is 14.5%; the “NK92 killing of K562, killing activity (%), 100 nM antibody” value stood at 17.7%. Further, in assay [7], the Kd – broadly, the equilibrium constant for the complex coming apart – is 1920 pM; the koff (usually a measure of how fast the partners let go of each other) came to 0.000325 s⁻¹; the kon – broadly, the second-order rate constant of association – came out at 169000 M⁻¹ s⁻¹. For the same molecule, the “PVRIG reporter gene cell activity EC50” value in assay [8] turned out to be 176 pM.

B4: anti-PVRIG antibody 20 (antibody, human IgG4 S228P, F234A L235A, V domains shown)
VH: DVQLVESGGGSVQAGGSLRLSCVASRYTSRTDCMGWFRQAPGKEHEGVAHIDSDGIPRYVDSVKGRFTISQDHAKNTLYLQMNSLKPEDSATYYCVVGFKFDDDYCAPNDWGQGTQVTVSS
notes: no light chain
Consider B4, for which the binding result in assay [9] was “no binding”. The EC50 (in general, the concentration that produces a half-maximal response) in [10] turned out to be 140 pM.

B5: humanized anti-PVRIG antibody 20H5 (antibody, human IgG4 S228P, F234A L235A, V domains shown)
VH: EVQLVESGGGLVQPGGSLRLSCAASGYTSRTDCMGWFRQAPGKEHEGVAHIDSDGIPRYVDSVKGRFTISQDHAKNSLYLQMNSLRAEDTAVYYCVVGFKFDEDYCAPNDWGQGTMVTVSS
In turn, B5 came in with an EC50 in assay [4] of 5 pM. The molecule further showed an EC50 in assay [5] of 7 pM. In addition, in [6], the “NK92 killing of K562, killing activity (%), 4 nM antibody” value stood at 9.2%; the “NK92 killing of K562, killing activity (%), 20 nM antibody” value was 9.9%; the “NK92 killing of K562, killing activity (%), 100 nM antibody” value came to 13.3%. In assay [7], the Kd was determined as 69.8 pM, the koff was 1.35e-05 s⁻¹ and the kon was found to be 193000 M⁻¹ s⁻¹. For the same molecule, in assay [8], the “PVRIG reporter gene cell activity EC50” value was 42 pM.
